Here are results for 1 molecule from article PMC5877952 (Proceedings of the National Academy of Sciences of the …, 2018).

For the assay, the target named is T1, SAX-3–Flag (C. elegans, UniProt G5EBF1 24-1273).
T1 sequence (looked up): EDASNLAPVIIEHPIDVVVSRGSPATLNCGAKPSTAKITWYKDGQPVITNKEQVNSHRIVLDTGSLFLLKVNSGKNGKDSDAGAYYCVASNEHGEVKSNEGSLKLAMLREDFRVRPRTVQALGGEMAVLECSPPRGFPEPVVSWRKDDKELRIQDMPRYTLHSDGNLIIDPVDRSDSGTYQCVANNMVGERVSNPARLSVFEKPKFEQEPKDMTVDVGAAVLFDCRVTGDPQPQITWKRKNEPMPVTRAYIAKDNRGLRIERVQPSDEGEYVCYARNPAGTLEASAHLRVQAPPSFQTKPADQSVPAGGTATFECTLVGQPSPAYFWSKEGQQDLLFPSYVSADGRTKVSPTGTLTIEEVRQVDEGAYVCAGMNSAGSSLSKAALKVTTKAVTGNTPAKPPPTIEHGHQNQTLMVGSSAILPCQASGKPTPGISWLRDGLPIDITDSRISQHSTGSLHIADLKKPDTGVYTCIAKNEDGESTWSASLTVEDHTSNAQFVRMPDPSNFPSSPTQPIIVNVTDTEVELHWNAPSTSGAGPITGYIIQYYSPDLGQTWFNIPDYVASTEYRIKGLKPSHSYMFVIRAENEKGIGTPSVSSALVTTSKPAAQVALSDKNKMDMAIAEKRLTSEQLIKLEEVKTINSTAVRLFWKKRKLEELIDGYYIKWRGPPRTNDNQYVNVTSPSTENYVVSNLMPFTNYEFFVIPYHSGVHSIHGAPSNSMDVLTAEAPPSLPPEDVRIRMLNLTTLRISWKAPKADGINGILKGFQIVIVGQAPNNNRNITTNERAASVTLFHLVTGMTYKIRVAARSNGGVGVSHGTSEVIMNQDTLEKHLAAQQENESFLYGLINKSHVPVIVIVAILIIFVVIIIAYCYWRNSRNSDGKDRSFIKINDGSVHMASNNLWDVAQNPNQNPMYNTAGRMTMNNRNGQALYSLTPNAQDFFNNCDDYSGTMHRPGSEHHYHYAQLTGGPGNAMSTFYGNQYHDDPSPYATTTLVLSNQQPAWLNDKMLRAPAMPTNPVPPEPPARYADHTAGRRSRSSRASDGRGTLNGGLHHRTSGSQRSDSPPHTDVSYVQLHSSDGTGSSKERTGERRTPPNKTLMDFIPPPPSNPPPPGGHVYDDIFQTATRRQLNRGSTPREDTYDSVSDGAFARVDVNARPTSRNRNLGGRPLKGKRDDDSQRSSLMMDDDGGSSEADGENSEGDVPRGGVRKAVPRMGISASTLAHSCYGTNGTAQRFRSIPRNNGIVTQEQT
The experiment in a line: pull-down.

B1: CWN-2–GST (ligand, C. elegans, UniProt P34889 38-360, looked up)
chain: AGHNVKPVCELPGLSPGQAQVCELFKDHMPAVSIGAQNAIQECQRQFTGHRWNCSTHYSTGMLGPIHKMATREAAFTYAILSAGVTHEIGRRCKQGLLTSCGCSDETKPKNVPTDWSWGGCGDNVEYGYKFSRDFIDIREKEHDPKRNHDNGRSLMNRRNNEAGRKILKRHRKPKCKCHGVSGACNMKTCWMQLPSMEQVGKILRNKYDKAIRVQINDRGNLQLLADEATKERKTRALPTDLVFMDDSPDYCRFDRHSGTLGTEGRVCKRGSGGAEGCDSLCCGRGYNTYTQEVKSKCNCKFEWCCKVVCQTCNNVTQVDICK
B1: the binding result was “binds”.
